The values below come from paper PMC7983153 (The Biochemical journal, 2018).

The target in one experiment is MtTSPS (Medicago truncatula, UniProt G7K2D1). The experiment is described as follows: X-ray crystallography, […] Å. Particulars: co-crystallization, 10-molar excess of ligand, pH 6.5; polyamine-binding groove.
Experiment [1] concerns the target MtTSPS-R37E mutant (Medicago truncatula). In words: SEC.
Experiment [2] concerns the target thermospermine synthase from Medicago truncatula (MtTSPS) (Medicago truncatula). In words: crystal structure.
The target is the same in experiment [3]. The experiment is described as follows: SAXS.

With `NCCCCNCCCNCCCN` [TSPM, thermospermine], the “X-ray crystallography, 1.65 Å” value on MtTSPS is “TSPM in the MtTSPS-TSPM complex is bound with aminopropyl group pointing outside the pocket”.

By stoichiometry N is commonly meant a count of units in the complex or per binding partner. In experiment [1], MtTSPS-R37E mutant (enzyme) came in with a stoichiometry N of 2.

“thermospermine synthase from Medicago truncatula (MtTSPS) (enzyme)”: the stoichiometry N in experiment [2] and in experiment [3] was 4 in each case.
